Laboratory results: US20250262210A1 (TRUSTEES OF COLUMBIA UNIVERSITY IN THE CITY OF NEW YORK, published 2025)

Columns and labels:
Assay in all cases: IP/MS, LZTR1 wild type-FLAG, U87
[1] = target: RNF213 (human, UniProt Q63HN8 1-5207, limits assumed)
Summary of the method: (§1)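 Gel slices were reduced with 5 mM DTT, alkylated with 11 mM IAA and digested overnight at 37° C. with trypsin. Peptides were analysed on an Orbitrap Fusion Tribrid by LC-MS/MS.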

[2] = target: T1, HECTD3 (human, UniProt Q5T447 2-861, limits assumed)
T1 sequence (looked up): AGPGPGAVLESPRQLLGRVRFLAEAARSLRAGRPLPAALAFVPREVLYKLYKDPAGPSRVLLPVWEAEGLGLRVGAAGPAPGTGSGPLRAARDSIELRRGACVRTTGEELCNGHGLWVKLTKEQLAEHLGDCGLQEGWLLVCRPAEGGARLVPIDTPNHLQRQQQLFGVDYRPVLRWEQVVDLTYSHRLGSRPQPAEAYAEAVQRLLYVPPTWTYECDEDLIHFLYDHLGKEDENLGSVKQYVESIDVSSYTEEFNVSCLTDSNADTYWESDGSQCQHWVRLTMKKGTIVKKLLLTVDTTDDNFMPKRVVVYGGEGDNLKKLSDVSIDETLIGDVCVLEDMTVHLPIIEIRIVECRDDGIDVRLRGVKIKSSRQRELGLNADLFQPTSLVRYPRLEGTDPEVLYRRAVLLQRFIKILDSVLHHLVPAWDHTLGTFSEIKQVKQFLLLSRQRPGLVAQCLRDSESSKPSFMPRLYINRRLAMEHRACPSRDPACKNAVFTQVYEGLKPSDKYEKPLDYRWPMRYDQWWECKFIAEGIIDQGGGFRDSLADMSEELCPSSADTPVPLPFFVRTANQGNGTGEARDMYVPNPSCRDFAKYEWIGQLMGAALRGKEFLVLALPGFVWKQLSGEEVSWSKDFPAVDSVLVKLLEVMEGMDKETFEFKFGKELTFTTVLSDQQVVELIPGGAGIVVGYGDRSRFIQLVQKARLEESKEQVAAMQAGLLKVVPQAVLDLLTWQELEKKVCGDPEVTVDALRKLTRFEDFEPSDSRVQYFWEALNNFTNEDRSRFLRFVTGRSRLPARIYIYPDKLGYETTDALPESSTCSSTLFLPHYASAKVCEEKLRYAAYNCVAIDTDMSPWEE
Summary of the method: as §1

[3] = target: T2, UBE4B (human, UniProt O95155 1-1302, limits assumed)
T2 sequence (looked up): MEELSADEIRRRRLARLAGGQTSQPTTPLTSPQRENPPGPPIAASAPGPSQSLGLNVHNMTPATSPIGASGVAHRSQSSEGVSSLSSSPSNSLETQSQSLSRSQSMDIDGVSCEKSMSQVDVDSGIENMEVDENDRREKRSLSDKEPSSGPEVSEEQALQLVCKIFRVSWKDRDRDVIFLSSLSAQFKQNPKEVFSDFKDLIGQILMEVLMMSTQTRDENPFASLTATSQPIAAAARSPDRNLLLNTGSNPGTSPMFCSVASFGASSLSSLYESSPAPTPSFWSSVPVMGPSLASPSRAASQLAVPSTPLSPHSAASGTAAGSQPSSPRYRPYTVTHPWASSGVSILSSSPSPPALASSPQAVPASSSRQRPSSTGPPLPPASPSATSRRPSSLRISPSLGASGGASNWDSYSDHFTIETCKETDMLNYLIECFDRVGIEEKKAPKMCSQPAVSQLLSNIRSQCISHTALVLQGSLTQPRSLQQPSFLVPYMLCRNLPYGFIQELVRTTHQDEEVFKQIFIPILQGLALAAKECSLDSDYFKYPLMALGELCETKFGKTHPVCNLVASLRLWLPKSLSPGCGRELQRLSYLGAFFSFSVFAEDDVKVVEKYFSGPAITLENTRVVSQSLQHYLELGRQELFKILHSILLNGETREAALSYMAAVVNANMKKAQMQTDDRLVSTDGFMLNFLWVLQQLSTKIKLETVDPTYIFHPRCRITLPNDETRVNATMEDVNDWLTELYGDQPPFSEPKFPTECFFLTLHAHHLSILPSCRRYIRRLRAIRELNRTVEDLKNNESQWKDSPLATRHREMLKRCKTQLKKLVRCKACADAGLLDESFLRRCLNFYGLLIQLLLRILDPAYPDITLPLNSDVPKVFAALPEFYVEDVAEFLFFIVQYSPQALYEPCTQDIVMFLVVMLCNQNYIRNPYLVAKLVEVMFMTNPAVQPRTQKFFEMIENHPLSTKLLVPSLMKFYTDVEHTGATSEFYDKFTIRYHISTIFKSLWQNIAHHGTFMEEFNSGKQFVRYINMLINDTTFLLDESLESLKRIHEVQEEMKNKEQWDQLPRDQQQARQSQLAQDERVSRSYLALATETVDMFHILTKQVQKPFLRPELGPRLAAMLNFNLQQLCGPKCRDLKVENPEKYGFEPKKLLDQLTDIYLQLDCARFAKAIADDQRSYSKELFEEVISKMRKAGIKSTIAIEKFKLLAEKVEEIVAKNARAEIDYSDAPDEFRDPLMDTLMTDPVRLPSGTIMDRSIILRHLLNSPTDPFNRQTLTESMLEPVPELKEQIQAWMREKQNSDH
Summary of the method: as §1

[4] = target: PAPPA (human, UniProt Q13219 82-1627)
Summary of the method: as §1

Chain of RNF213 (Q63HN8 whole entry, the tested form may be a part): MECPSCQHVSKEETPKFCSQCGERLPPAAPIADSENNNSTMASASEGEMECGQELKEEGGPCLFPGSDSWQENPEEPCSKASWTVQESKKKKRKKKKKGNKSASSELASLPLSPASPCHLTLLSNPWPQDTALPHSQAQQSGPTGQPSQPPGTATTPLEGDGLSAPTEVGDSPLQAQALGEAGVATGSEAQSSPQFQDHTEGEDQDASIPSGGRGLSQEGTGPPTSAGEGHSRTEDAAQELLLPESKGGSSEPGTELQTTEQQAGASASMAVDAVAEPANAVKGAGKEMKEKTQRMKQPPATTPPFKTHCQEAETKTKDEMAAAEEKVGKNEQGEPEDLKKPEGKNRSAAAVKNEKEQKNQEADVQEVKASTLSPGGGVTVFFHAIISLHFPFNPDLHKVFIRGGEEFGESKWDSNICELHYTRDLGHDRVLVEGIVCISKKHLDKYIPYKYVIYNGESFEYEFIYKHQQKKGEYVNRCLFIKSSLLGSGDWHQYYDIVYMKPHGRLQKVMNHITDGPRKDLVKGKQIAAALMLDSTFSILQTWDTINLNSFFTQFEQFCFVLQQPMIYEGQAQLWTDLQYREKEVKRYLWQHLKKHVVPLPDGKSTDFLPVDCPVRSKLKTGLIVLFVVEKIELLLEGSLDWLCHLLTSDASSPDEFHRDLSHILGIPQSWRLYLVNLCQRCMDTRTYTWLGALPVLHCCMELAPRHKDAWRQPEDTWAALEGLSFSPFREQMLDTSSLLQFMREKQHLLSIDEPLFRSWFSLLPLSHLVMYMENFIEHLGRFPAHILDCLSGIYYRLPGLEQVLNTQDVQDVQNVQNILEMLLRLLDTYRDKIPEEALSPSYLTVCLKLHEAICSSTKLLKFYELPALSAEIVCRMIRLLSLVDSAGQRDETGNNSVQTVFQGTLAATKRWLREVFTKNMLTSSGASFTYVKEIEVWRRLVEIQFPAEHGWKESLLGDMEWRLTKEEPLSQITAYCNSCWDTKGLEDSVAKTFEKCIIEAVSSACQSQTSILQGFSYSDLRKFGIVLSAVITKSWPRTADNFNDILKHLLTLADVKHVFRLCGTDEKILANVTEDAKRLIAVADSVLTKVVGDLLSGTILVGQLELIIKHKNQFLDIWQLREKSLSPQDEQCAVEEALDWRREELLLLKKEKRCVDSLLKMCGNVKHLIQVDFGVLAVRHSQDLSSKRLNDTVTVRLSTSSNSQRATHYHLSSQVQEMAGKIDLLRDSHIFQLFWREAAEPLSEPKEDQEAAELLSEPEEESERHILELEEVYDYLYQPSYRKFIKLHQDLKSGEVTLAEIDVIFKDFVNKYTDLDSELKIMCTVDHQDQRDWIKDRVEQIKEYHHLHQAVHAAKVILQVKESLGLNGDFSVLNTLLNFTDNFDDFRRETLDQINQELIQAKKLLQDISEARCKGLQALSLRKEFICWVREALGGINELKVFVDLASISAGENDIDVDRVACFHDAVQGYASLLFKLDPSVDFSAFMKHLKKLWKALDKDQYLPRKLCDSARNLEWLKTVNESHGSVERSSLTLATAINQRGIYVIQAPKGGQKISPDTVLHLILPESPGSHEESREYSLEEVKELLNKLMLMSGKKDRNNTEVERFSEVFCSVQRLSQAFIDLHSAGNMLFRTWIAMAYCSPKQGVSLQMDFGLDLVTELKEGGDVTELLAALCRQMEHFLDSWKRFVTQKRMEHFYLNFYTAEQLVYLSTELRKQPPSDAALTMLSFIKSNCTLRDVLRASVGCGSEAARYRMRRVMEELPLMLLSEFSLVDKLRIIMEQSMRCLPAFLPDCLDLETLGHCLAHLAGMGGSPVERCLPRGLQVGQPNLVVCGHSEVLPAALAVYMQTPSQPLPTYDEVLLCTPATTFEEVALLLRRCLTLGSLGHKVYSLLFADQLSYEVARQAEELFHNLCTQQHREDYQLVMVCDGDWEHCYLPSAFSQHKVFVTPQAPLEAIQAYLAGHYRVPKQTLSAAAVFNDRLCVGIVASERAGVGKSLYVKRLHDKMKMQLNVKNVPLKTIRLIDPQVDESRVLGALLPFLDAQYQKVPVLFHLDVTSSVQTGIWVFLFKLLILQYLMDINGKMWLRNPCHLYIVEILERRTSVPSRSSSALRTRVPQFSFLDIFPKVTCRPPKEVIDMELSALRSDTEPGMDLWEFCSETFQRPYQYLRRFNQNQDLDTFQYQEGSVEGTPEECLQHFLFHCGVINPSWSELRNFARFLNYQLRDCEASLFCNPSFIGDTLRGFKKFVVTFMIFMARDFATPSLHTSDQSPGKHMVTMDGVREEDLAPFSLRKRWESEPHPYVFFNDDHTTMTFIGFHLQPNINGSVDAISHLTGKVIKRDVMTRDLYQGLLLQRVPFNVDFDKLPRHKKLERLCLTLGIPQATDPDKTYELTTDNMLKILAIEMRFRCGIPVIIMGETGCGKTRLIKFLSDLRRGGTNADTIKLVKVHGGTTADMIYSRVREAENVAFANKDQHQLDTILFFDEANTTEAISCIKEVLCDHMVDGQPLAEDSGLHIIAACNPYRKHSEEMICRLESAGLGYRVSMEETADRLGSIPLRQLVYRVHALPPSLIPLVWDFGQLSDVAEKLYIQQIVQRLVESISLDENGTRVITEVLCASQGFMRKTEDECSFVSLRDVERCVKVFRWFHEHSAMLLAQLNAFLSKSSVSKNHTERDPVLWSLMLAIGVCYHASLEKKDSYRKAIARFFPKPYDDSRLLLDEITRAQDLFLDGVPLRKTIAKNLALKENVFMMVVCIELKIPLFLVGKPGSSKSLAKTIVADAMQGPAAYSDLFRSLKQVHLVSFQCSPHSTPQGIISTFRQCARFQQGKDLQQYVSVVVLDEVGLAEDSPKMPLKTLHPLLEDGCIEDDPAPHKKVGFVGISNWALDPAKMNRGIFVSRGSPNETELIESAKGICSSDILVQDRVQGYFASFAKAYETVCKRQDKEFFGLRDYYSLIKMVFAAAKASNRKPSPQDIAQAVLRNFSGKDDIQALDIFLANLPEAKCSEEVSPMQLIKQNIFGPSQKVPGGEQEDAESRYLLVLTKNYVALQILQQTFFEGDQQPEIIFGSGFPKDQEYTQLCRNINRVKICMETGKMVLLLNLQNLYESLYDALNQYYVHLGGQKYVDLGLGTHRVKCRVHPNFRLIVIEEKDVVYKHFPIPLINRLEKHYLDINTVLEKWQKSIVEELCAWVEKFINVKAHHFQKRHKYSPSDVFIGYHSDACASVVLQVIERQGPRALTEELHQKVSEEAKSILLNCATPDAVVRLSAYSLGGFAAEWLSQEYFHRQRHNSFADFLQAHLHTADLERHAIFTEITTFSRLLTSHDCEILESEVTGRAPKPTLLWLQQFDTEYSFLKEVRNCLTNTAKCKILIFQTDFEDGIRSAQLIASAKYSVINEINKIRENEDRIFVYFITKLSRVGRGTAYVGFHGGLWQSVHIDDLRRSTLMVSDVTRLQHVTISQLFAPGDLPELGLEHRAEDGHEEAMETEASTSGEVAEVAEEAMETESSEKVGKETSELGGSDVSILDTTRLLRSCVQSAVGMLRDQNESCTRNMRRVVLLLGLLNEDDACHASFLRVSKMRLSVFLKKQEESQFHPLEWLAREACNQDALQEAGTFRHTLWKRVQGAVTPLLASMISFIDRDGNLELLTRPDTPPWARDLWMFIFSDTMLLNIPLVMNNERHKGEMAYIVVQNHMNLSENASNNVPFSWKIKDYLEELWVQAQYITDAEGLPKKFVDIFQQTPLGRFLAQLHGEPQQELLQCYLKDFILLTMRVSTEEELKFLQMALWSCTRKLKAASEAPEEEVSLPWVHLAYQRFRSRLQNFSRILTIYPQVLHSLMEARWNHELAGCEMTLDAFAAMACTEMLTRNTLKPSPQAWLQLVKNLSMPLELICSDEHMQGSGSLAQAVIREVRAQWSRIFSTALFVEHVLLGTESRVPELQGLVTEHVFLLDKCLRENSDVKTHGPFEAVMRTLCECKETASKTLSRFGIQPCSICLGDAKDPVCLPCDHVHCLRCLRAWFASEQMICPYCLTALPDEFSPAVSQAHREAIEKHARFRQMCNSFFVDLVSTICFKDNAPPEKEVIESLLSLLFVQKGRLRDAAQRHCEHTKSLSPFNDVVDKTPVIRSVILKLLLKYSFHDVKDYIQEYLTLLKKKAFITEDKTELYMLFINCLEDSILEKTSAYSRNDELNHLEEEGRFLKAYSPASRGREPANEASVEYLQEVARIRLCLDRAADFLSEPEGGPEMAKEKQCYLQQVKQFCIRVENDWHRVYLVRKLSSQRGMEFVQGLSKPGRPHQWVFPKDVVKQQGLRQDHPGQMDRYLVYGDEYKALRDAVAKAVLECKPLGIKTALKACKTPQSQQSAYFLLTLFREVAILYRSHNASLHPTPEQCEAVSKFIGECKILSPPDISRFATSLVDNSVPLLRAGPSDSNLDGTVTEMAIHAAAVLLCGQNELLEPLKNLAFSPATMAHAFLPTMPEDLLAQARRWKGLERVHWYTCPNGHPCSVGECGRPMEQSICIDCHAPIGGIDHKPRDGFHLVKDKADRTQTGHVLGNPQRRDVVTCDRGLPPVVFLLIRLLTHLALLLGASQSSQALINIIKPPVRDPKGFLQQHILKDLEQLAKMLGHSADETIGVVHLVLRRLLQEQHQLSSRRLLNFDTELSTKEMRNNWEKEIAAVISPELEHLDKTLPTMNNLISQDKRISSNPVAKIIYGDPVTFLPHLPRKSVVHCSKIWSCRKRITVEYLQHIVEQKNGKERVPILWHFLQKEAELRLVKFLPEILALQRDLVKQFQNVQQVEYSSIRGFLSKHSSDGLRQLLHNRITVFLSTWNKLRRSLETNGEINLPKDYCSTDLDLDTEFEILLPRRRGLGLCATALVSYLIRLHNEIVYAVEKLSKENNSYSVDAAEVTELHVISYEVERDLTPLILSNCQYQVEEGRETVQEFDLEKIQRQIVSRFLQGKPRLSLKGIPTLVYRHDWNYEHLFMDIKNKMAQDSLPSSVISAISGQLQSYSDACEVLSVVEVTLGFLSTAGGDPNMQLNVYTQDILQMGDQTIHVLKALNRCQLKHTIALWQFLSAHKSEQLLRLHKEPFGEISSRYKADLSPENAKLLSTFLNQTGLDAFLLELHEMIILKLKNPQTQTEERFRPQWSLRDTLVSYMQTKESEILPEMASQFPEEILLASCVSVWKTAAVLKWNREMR

binding result [1]: binds
binding result [2]: binds
binding result [3]: binds
binding result [4]: binds
B1: LZTR1-FLAG (other, human, UniProt Q8N653 1-840, looked up)
chain: MAGPGSTGGQIGAAALAGGARSKVAPSVDFDHSCSDSVEYLTLNFGPFETVHRWRRLPPCDEFVGARRSKHTVVAYKDAIYVFGGDNGKTMLNDLLRFDVKDCSWCRAFTTGTPPAPRYHHSAVVYGSSMFVFGGYTGDIYSNSNLKNKNDLFEYKFATGQWTEWKIEGRLPVARSAHGATVYSDKLWIFAGYDGNARLNDMWTIGLQDRELTCWEEVAQSGEIPPSCCNFPVAVCRDKMFVFSGQSGAKITNNLFQFEFKDKTWTRIPTEHLLRGSPPPPQRRYGHTMVAFDRHLYVFGGAADNTLPNELHCYDVDFQTWEVVQPSSDSEVGGAEVPERACASEEVPTLTYEERVGFKKSRDVFGLDFGTTSAKQPTQPASELPSGRLFHAAAVISDAMYIFGGTVDNNIRSGEMYRFQFSCYPKCTLHEDYGRLWESRQFCDVEFVLGEKEECVQGHVAIVTARSRWLRRKITQARERLAQKLEQEAAPVPREAPGVAAGGARPPLLHVAIREAEARPFEVLMQFLYTDKIKYPRKGHVEDVLLIMDVYKLALSFQLCRLEQLCRQYIEASVDLQNVLVVCESAARLQLSQLKEHCLNFVVKESHFNQVIMMKEFERLSSPLIVEIVRRKQQPPPRTPLDQPVDIGTSLIQDMKAYLEGAGAEFCDITLLLDGHPRPAHKAILAARSSYFEAMFRSFMPEDGQVNISIGEMVPSRQAFESMLRYIYYGEVNMPPEDSLYLFAAPYYYGFYNNRLQAYCKQNLEMNVTVQNVLQILEAADKTQALDMKRHCLHIIVHQFTKVSKLPTLRSLSQQLLLDIIDSLASHISDKQCAELGADI
notes: Expressed in HEK 293T, HeLa or U87 cells; used as cell lysate; also called LZTR1 wild type-FLAG; LZTR1 WT; not shown: FLAG tag at the C-terminus
